Experiments:
[1] = biological target: M2 isoform of human pyruvate kinase, wild type (human) (UniProt P14618); test: SEC; analytical gel filtration, Superdex 200 PC 3.2/30 in PBS-CM, room temperature; 0.1 mg/ml incubated 12 h (equilibrium) without or with 1 mM DTT or 20 μM H2O2; tetramer to monomers, peak areas on a bimodal distribution
[2] = biological target: M2 isoform of human pyruvate kinase, wild type (human) (UniProt P14618); test: SEC; analytical gel filtration, Superdex 200 PC 3.2/30 in PBS-CM, room temperature; stock of ∼20 mg/ml diluted to 0.1 mg/ml and incubated 1 h without or with 1 mM DTT or 20 μM H2O2; tetramer to monomers, peak areas on a bimodal distribution
[3] = biological target: Pyruvate kinase M2 (Homo sapiens) (UniProt P14618); test: gel filtration; details: cited from earlier work

Chain of M2 isoform of human pyruvate kinase, wild type, P14618 1-531 (enzyme; other documents disagree on this pair) (P14618 whole entry, canonical isoform): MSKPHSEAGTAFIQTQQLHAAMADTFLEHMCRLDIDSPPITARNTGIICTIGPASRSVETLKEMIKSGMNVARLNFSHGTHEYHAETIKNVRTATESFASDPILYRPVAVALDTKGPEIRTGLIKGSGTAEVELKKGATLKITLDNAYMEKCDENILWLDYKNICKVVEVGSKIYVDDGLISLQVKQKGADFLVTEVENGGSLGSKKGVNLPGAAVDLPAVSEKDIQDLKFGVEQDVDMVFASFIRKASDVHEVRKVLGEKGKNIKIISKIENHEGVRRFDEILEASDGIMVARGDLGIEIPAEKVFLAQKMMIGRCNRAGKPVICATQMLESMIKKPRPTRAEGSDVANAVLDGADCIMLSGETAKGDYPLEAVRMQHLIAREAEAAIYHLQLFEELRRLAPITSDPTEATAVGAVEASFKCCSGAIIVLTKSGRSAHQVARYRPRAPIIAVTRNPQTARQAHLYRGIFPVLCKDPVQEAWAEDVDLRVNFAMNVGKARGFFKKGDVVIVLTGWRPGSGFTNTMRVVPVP
Chain of Pyruvate kinase M2 (P14618 2-531): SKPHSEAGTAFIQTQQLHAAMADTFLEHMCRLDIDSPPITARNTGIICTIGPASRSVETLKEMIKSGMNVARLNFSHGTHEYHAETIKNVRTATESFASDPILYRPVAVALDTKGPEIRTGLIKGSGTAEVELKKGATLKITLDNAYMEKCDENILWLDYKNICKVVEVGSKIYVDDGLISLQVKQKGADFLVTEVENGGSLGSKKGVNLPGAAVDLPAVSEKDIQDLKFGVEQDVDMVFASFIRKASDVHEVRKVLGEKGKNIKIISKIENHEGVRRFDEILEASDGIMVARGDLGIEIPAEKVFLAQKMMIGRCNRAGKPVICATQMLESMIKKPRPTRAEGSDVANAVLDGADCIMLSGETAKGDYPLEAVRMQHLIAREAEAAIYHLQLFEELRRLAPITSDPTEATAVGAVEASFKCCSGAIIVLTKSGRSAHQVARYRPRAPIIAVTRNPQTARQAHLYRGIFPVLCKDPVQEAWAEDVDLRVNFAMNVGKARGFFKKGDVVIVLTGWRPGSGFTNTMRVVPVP

percent tetramer (20 μM H2O2, 12 h) [1] [%] | percent tetramer (1 mM DTT, 12 h) [1] [%] | percent tetramer (no DTT, no H2O2, 12 h) [1] [%] | percent tetramer (20 μM H2O2, 1 h) [2] [%] | percent tetramer (1 mM DTT, 1 h) [2] [%] | percent tetramer (no DTT, no H2O2, 1 h) [2] [%] | Substance | Kd [3] [nM]
42 | 71 | 55 | 63 | 64 | 62 | M2 isoform of human pyruvate kinase, wild type, P14618 1-531 (enzyme; other documents disagree on this pair) | –
– | – | – | – | – | – | Pyruvate kinase M2 (from UniProt P14618) | 900
